According to the DeepSol protein solubility set:

Assay: soluble on expression in E. coli; label from the status in PepcDB or PDB records

Row | Sequence | soluble on expression in E. coli
1 | MAHHHHHHMHLDEEYGNRSSSVSCDSSDAASAHSSSSDSASSAGGRQQRQRGNGSGGTETASLLSLPTASHANHAGCSVCGSATSLASRVSLLSTLSQHSAASYLSFISVLRPSITAGSAAGGTGAGGSADGDGAAGAGQQMHESEDGNTNLPLILLEQLALGLHRFMEAYPAELLDRYGLRSVSWSSIARMFATVEKSLVNTTTTAGAAAGAAAAAAPRQANHFPNDQEPPQPLFNLAQDIRYNKGMGYECLGLLFAKVVAPLLDPASSRAIASTSWSPPQQHQLRRSTGEATGTEDDDGSGGGARSDGGGTQEEFFANAAAVAATVGRAVLTIDDDPATRASVEAALSRCLTAYETVAPQVVDMNLPTILRLAARTAATSAGSTTSLRASASPSSLSIVLVDFVRDITARLGRGNDLPHLVDALLQRGDFAANASATAAASAVVDGSGDKASTIRSLRAVFSLPPVRQAVMEAAGTSLDPESLLRRLSGVAAELEEDNKSSSSSSSAQDEKQVELSSTARSCRKHDDARVQRMLLALELMEALLAGVTPTCVSASAVLEHTTQLELLLSSSFMAAVEELKGVCGEALDDRRALMIQHMYTIRQCRAVTILCLQDLGTQQVHDYLRMLEDALWQLTSHVGNLVGSLTLAELQPLLRPHPARYGGSEVLAPSPSALEQLQVQLLPSSLILQRPVASARSDRRPGNSRRARRGAP | not soluble
2 | MDEHFIKIHKWLYPVSWIYGAVVTVRNKLFDWGFLRSKSFGVPVICIGNLSVGGTGKTPHTEYLIKLLRDNYHVAVLSRGYKRHSRGYVLATPQSTARSIGDEPYQMHTKFPSVTLAVDENRCHGIEQLLSIKEPSIEVVLLDDAFQHRYVKPGLSILLTDYHRLFCDDTLLPAGRLRESVNGKNRAQIVIVTKCPQDIKPIDYNIITKRLNLYPYQQLYFSSFRYGNLQPVFPSANSEIDSTVNELPLSALTNTDILLVTGIASPAPILEELKMYTDQIDSLSFDDHHHFSHRDIQQIKERFGKLKGEHKLIVTTEKDATRLIHHPVLSEELKPFIYALPIEIEILQNQQDKFNQHIIGYVRENTRNSSFSERENAHQSLEHHHHHH | soluble
3 | MGRIYLKKAKSEEDLLKRGRPFTVEVDELKIPFCVSPVTNTFDNKKKVFLTFLGPVKQFHEAIHLCITSLYRPTPYNKYELTTNVDDLTCTPDIKNMKESYLATIKSESLNASTIDNFLSKKTSIEKLTLGMKVLDNFQEDSAIFRMKYFWFTYSLEHAPIVLSKFQGTHLWMTDANIKNEDIISFLNTWQNSECDRKIFEIKVSEGMNPLNPDIVYEDIDVSDWDPAERPKEFNFVSTFFPENFNKVYDCSTWMDIKRSGDGKIASICITSNAFKFLVWD | not soluble
4 | MATNWGSLLQDKQQLEELARQAVDRALAEGVLLRTSQEPTSSEVVSYAPFTLFPSLVPSALLEQAYAVQMDFNLLVDAVSQNAAFLEQTLSSTIKQDDFTARLFDIHKQVLKEGIAQTVFLGLNRSDYMFQRSADGSPALKQIEINTISASFGGLASRTPAVHRHVLSVLSKTKEAGKILSNNPSKGLALGIAKAWELYGSPNALVLLIAQEKERNIFDQRAIENELLARNIHVIRRTFEDISEKGSLDQDRRLFVDGQEIAVVYFRDGYMPRQYSLQNWEARLLLERSHAAKCPDIATQLAGTKKVQQELSRPGMLEMLLPGQPEAVARLRATFAGLYSLDVGEEGDQAIAEALAAPSRFVLKPQREGGGNNLYGEEMVQALKQLKDSEERASYILMEKIEPEPFENCLLRPGSPARVVQCISELGIFGVYVRQEKTLVMNKHVGHLLRTKAIEHADGGVAAGVAVLDNPYPV | soluble
5 | MPRPSQRLLSPEIITEAAMRMVDLTGDFTMPGLAERLKVRPSSLYNHVSGRAEIIELMRARMMAGIVVADPDGKWSETVAGLAREYRRNYAEHPRLIPLFTAHTVQSGVAFGLYNALAQAFSDGGFTPEEILHAITTVDSFVLGSALDLAAPEVVWATAPEANEAMLAALATSGPNPGRADAAFEFGLRTLIAGLVAQAPIEP | not soluble
6 | MNHFELYKLKKAGLTNKNILNILDYQKHQEKSLSLRDMAVVSGCKHPSHFIEAYKQLDIQNLKMEFKQFPSISILDKHYPMALKEIYNPPVLLFFQGNLDLLEKPKLAIVGSRRSSDTGVKSVRKILKELGNRFVIVSGLARGIDTSAHLACLKNGGQTIAIIGTGLDRFYPKENRELQTFLGKNHLVLTEYGPGEEALSYHFPERNRIIAGLSRGILVVEAKNRSGSLITCQIGIEEGRDIFAVPGNILDGKSEGCLQLIKEGATCVTSGMDILSEY | not soluble
7 | MSIIAINENGFLDKIKGRNPLFTCVISSIETTLSIPISGVHRDVIKYTPSADVELVFYGKSLTLKTPPIDATGSPTPATITRACVELKNIKNLHIDAGAFVKPKIPFIEIDEKPTGRIEEGKAMNNSKELYMKGYLLGKNLDAELLIVGESVPGGTTTALGVLLGLGYDAEGKVSSGSINNPHELKIKVVREGLKKAGINEKSSVFDVLNAVGDKMMPVVAGLAISFAERNKPVILAGGTQMSAVLAVIKEINKKVLDKNLIAIGTTEFVLNDKKGDLKGIVEQIGNVPVLASKFYFEKAKIEGLKNYCKGSVKEGVGAGGIAVYSIVNDLEPTKIREFIENKFYEWYKE | soluble
8 | MSTHLLHALWLKNSGLHLWIEQVEGHKIVLSDAVPDNTFPDSVATLIRGKRFTHQVKTKLLTPKGREVTLQLPTIAFTPEQAVRVLSQIAAITPMMASSAQRATLAPDLMWMVRLYQGLEQFVRAGRLTIKLGYADHQWWPTWQLSSGLQERGWIAQMTAAAPGVLIANAGSSVAEDIADELPHWIANFLLQDLLDTPRSSEWHSFPEALMRSTPLRRGTAQLVSALNEWRDSMTSVSVQLVFIVEEPSKDREDRIDPADMLWPIRVRVRSGVDSPQPIMLSHYDSATKERLNALRREAILVAPILEKQGTDSNVTPTQLFELQREEGAGDWDCYVTTDQLVEFIGDAAARLKSRGFNVLLPRSWDQQETKAHLRLSDPAEASTQATIGLDKIVDYDWHMSVGDIELTEAEMVELVRSKSGLIHLRGEWVMADTAAIRRIGDYMKDVAAQSRKRKKQALDTAVMEAELAKANDDPRWPMLEARAEKLAEEFNNEFAEFGQVTLAELRELALKAQENEPIAYTGSPWHASLAGGSMGKDSPAPQRVSI | not soluble
9 | MEITDVRLRRVETDGRMKAISSITIDGEFVIHDIRVIDGNEGLFVAMPSKRTPDGEFRDIAHPINSGTRAKIQEAVLAAYEVADEPAVNEESSADESVVEEN | not soluble
10 | MGSDKIHHHHHHMIYYGTMFDHKVRFSIVRMREVVEEARNRHALSYLATVVLGRALIGAALVTPWLAEKERWTLDIEGNGPIRRVVAQSTSEFTVRGYVANPKVELPLNEKGKFDVAGAIGQGVLRVVRDLGLKTPFVSQVPLVSGEIAEDLAYYFAVSEQIPSAFSIGVLVDSDGVKIAGGFAVQIIDRTLEQEKVEMIEKNIKNLPSISKLFQEAEPLDVLERIFGEKVGFVETAEIKYKCDCNREKAKNALLVLDKKELEDMRKEGKGEVVCKWCNTRYVFSEEELEELLKFKVDDSGS | soluble
11 | MGHHHHHHSHMDLSYALETVLNKQFPSSPQDVLGELQFAFVCFLLGNVYEAFEHWKRLLNLLCRSEAAMMKHHTLYINLISILYHQLGEIPADFFVDIVSQDNFLTSTLQVFFSSACSIAVDATLRKKAEKFQAHLTKKFRWDFAAEPEDCAPVVVELPEGIEMG | not soluble
12 | MYEAGTVEWRLTMVYLEQFRFPDAEVEFDFFLRQKRTCYDTYYPFQILSKHRFEQIDFEPVTILYGGNGTGKSTVLNIIAQKLHLLREAPFNQSSFYEDYLELCSFESAAHLPKDSRIITSDDVFDYMLNIRNLNEGIDRKREMLFEEYLDTKFAKFRMKSLDDYEQLKRVNNARRKTQSQFIRSELMDNVREYSNGESAFLYFTEKVTENALFLLDEPENSLSPAKQQELVKFIEDSARFFGCQFVIATHSPFVLAIRGAKIYDLDEEPVDVKRWTELENVRAYYDFFKKHASEF | not soluble
13 | MGSDKIHHHHHHMMHDDQVNIDIDIARKMIRDQFPQYRHEDITSVGSSGTVNAIFRIGSKSAARFPLRAMNPTECADMLRSEAAAMVEIGKHCLFPTPQPIGIGEPGPRYPMPWALQTWIEGEVATPHGLSGSTMFALDLARLVASLRQADTRGRRFDGQGRGGHLPDHDDWMAVCLENSEGLLDVARLRDLWARLRELPCAGSVVMSHKDLIPANLLVQGERLVGVLDGGSFGPADPSLDLVVGWHLLDRERRAAFRSGLQVEDLLWKRGAAWAFQQAMGLVWYYRRTNRAMSALGRSTLSRILADPDI | not soluble
14 | KTIAIIGAGIVGVSTAIWLQRDGHQVVLIDRAGPAEGTSYGNGGVLASCSIVPVTTPGLIAKAPRMLFSPNEPLFLRWGYLPRLAPWLLRYLRRANARDATQTAAAMAPIVGDSLADHLALAQGTGAEKWVVPSDYLFIYNDRAHFQGDAFGWNLRRQNGFVWDEMEAEEFRGYDPIFSSDLRFAVRLKDHGRITDPGQYVKDLAAHVVASGGQLIQADVEDIARENGRVTGVRAGGRTIPCDAAVIATGVWSGPLARKLGLEVPLEAERGYHIEFWNPNFMPKSPVMVAARKFVATPMEGRLRLAGVVEFGGLDAGPSRAPIELLKRSAAAVFPGLKADEVTEWLGHRPAPADSIPVIGELPHLKGAFTGFGHHHVGLTGGPKTGRILAQLIAGRQPNIDL | not soluble
15 | MAHHHHHHMGTLEAQTQGPGSMDNKKPKIITIASIKGGVGKSTSAIILATLLSKNNKVLLIDMDTQASITSYFYEKIEKLGINFTKFNIYEILKENVDIDSTIINVDNNLDLIPSYLTLHNFSEDKIEHKDFLLKTSLGTLYYKYDYIVIDTNPSLDVTLKNALLCSDYVIIPMTAEKWAVESLDLFNFFVRKLNLFLPIFLIITRFKKNRTHKTLFEILKTKDRFLGTISEREDLNRRIAENNNFDLNKDYIKEYENILEIFLKKI | soluble
16 | MGSDKIHHHHHHMDAIARELRTSRSTVSRLLSAARETGLVQIQIRNPLDTGPELENMIRTQYRVDVHVVPVLDTLNEAETLDRVAMQAARTIGPLVDSNAIIGVAWGSTLSAVSRHLTRKITHDSVIVQLNGAGNMQTTGITYASDIMRRFGSAYGARVEQFPVPAFFDHAATKTAMWNERSVQRILELQSRMSIAIFGVGSVDADYPSHVYAGGYLDEDDLNILANSDVVGDVATVFFRGDGSSDGITLNERSTGPALAQLRQVRRRICVVSGASKINGLRGALAAGLATDLILDEATARRLVSFDGLS | not soluble
17 | NEFELGTRGSSRVDLQEQRSVKTRVSLDDLFEQIKQGEMKELNLIVKADVQGSVEALVAALQKIDVEGVRVKIIHAAVGAITESDISLATASNAIVIGFNVRPDANAKRAAESEKVDIRLHRIIYNVIEEIEAAM | soluble
18 | IIAWLGPQLRELTPVDTNKDPKTRLQEFLQSRGCDLPRYEVVDIQGEPHCRTFFVDCEVALLSDKTHGHGGSRRIAEQVAAAAALVALGVENGHD | not soluble
19 | IEETGTVIIAGIGRFGQIVNRLLVSNGVTTVVLDHQANQVDNMRQIGTRAYFGDATRPDMLHTAGIEHAAALVVAIDNQESSVELVKYVKHTYPKVKIIARAFDRGHGYLLRQAGADVIESETYHSALEMGGHAMKALGI | not soluble
20 | MGDNGTGIECIGLPPGFSIDYYAEGVEGARSMALSPEGTLFAGSRGAGKLYAMTDRNGDNKADDVLVIAEGLDMPNGVAFRNGSLYVAEISRVLRYDDIEARLENPPDPAVVRGDFPADRSHGWKYIKFGPDGKLYVPVGMPCNVCNLEEEEERYGTMMRMEPDGSQPEIFARGIRNTVGFAWNPETGELWFTDNGRDWLGDDLPPDELNRAPVPGMHFGFPYCHGKDTPDPEYGEFRNCSEFTAPEVELGPHVAALGMTFYNGSMFPEEYRNQIFIAEHGSWNRKIPIGYRVSLVRLENGTPVSYEPFADGWLQGLASWGRPVDVLVMPDGALLVSDDKNNAIYRISLEHHHHHH | not soluble
21 | PSMPASPVLTKAGITWLSLQWSKPSGTPSDEGISYILEMEEETSGYGFKPKYDGEDLAYTVKNLRRSTKYKFKVIAYNSEGKSNPSEVVEFTTCPD | soluble
